Assay results published in the RNAGym collection of RNA variant scans (doi:10.1093/molbev/msab373).

B1: Azoarcus group I ribozyme (parent)
chain: GUGCCUUGCGCCGGGAAACCACGCAAGGGAUGGUGUCAAAUUCGGCGAAACCUAAGCGCCCGCCCGGGCGUAUGGCAACGCCGAGCCAAGCUUCGGCGCCUGCGCCGAUGAAGGUGUAGAGACUAGACGGCACCCACCUAAGGCAAACGCUAUGGUGAAGGCAUAGUCCAGGGAGUGGCGAAAGUCACACAAACCGG

Variants of: B1
Assay: reverse-splicing fitness (ratio to wild type); higher = more active; in vitro selection; Mg2+ level not given
Method in brief: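 An in vitro group I ribozyme library with randomized positions was T7-transcribed and gel-purified. In triplicate, 10 pmol RNA in EPPS pH 7.5 was reacted with 50 pmoles of a 30-nt RNA substrate for 1 h at 37 °C across several added MgCl2 levels (1–48 mM), then stopped with EDTA. Products were reverse transcribed from a substrate-complementary primer, PCR-amplified and sequenced (HiSeq 4000). Fitness is a variant's read proportion after selection over that before, normalised to wild type.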

Question: For GUGCCUUGCGCCGGGAAACCACGCAAGGGAUGGUGUCAAAUUCGGCGAAACCUAAGCGCCCGCCCGGGCGUAUGGCAACGCAGAGCCAAGCUUCGGCGCCUGCGCCGAUGCAGGUGUAGCGACUAGACGGCACCCACCUAAGGCCAACGUUAUGGUGAAGGCAUAGUCCAGGGAGAGGCGAAAGUCACACAAACCGG, which reverse-splicing fitness is on record?
Answer: The reverse-splicing fitness was 0.00941.

Question: With GUGCCUUGCGCCGGGAAACCACGCAAGGGAUGGUGUCAAAUUCGGCGAAACCUAAGCGCCCGCCCGGGCGUAUGGCAACGCAGAGCCAAGCUUCGGCGCCUGCGCCGAUGCAGGUGUAGCGACUAGACGGCACCCACCUAAGGCCAACGUUAUGGUGAAGGCAUAGUCCAGGGAGGGGCGAAAGUCACACAAACCGG as the variant, how does the reverse-splicing fitness read?
Answer: Its reverse-splicing fitness is 0.00571.

Question: With GUGCCUUGCGCCGGGAAACCACGCAAGGGAUGGUGUCAAAUUCGGCGAAACCUAAGCGCCCGCCCGGGCGUAUGGCAACGCAGAGCCAAGCUUCGGCGCCUGCGCCGAUGCAGGUGUAGCGACUAGACGGCACCCACCUAAGGCCAACGUUAUGGUGAAGGCAUAGUCCAGGGAGCGGCGAAAGUCACACAAACCGG as the variant, how does the reverse-splicing fitness read?
Answer: Its reverse-splicing fitness is 0.0125.

Question: Which reverse-splicing fitness does the source give for GUGCCUUGCGCCGGGAAACCACGCAAGGGAUGGUGUCAAAUUCGGCGAAACCUAAGCGCCCGCCCGGGCGUAUGGCAACGCAGAGCCAAGCUUCGGCGCCUGCGCCGAUGCAGGUGUAGCGACUAGACGGCACCCACCUAAGGCCAACGUUAUGGUGAAGGCAUAGUCAAGGGAGCGGCGAAAGUCACACAAACCGG here?
Answer: Its reverse-splicing fitness is 0.0112.

Question: For GUGCCUUGCGCCGGGAAACCACGCAAGGGAUGGUGUCAAAUUCGGCGAAACCUAAGCGCCCGCCCGGGCGUAUGGCAACGCAGAGCCAAGCUUCGGCGCCUGCGCCGAUGCAGGUGUAGCGACUAGACGGCACCCACCUAAGGCCAACGUUAUGGUGAAGGCAUAGUCAAGGGAGAGGCGAAAGUCACACAAACCGG, which reverse-splicing fitness is on record?
Answer: The reverse-splicing fitness was 0.0145.

Question: Which reverse-splicing fitness does the source give for GUGCCUUGCGCCGGGAAACCACGCAAGGGAUGGUGUCAAAUUCGGCGAAACCUAAGCGCCCGCCCGGGCGUAUGGCAACGCAGAGCCAAGCUUCGGCGCCUGCGCCGAUGCAGGUGUAGCGACUAGACGGCACCCACCUAAGGCCAACGUUAUGGUGAAGGCAUAGUCAAGGGAGGGGCGAAAGUCACACAAACCGG here?
Answer: Its reverse-splicing fitness is 0.00751.

Question: Which reverse-splicing fitness does the source give for GUGCCUUGCGCCGGGAAACCACGCAAGGGAUGGUGUCAAAUUCGGCGAAACCUAAGCGCCCGCCCGGGCGUAUGGCAACGCAGAGCCAAGCUUCGGCGCCUGCGCCGAUGCAGGUGUAGCGACUAGACGGCACCCACCUAAGGCCAACGUUAUGGUGAAGGCAUAGUCUAGGGAGGGGCGAAAGUCACACAAACCGG here?
Answer: Its reverse-splicing fitness is 0.00738.

Question: For GUGCCUUGCGCCGGGAAACCACGCAAGGGAUGGUGUCAAAUUCGGCGAAACCUAAGCGCCCGCCCGGGCGUAUGGCAACGCAGAGCCAAGCUUCGGCGCCUGCGCCGAUGCAGGUGUAGCGACUAGACGGCACCCACCUAAGGCCAACGUUAUGGUGAAGGCAUAGUCUAGGGAGAGGCGAAAGUCACACAAACCGG, which reverse-splicing fitness is on record?
Answer: The reverse-splicing fitness was 0.0135.

Question: Which reverse-splicing fitness does the source give for GUGCCUUGCGCCGGGAAACCACGCAAGGGAUGGUGUCAAAUUCGGCGAAACCUAAGCGCCCGCCCGGGCGUAUGGCAACGCAGAGCCAAGCUUCGGCGCCUGCGCCGAUGCAGGUGUAGCGACUAGACGGCACCCACCUAAGGCCAACGUUAUGGUGAAGGCAUAGUCUAGGGAGCGGCGAAAGUCACACAAACCGG here?
Answer: The reverse-splicing fitness was 0.0105.

Question: With GUGCCUUGCGCCGGGAAACCACGCAAGGGAUGGUGUCAAAUUCGGCGAAACCUAAGCGCCCGCCCGGGCGUAUGGCAACGCAGAGCCAAGCUUCGGCGCCUGCGCCGAUGCAGGUGUAGCGACUAGACGGCACCCACCUAAGGCCAACGCUAUGGUGAAGGCAUAGUCAAGGGAGAGGCGAAAGUCACACAAACCGG as the variant, how does the reverse-splicing fitness read?
Answer: The reverse-splicing fitness was 0.0158.

Question: Which reverse-splicing fitness does the source give for GUGCCUUGCGCCGGGAAACCACGCAAGGGAUGGUGUCAAAUUCGGCGAAACCUAAGCGCCCGCCCGGGCGUAUGGCAACGCAGAGCCAAGCUUCGGCGCCUGCGCCGAUGCAGGUGUAGCGACUAGACGGCACCCACCUAAGGCCAACGCUAUGGUGAAGGCAUAGUCAAGGGAGGGGCGAAAGUCACACAAACCGG here?
Answer: Its reverse-splicing fitness is 0.00646.

Question: For GUGCCUUGCGCCGGGAAACCACGCAAGGGAUGGUGUCAAAUUCGGCGAAACCUAAGCGCCCGCCCGGGCGUAUGGCAACGCAGAGCCAAGCUUCGGCGCCUGCGCCGAUGCAGGUGUAGCGACUAGACGGCACCCACCUAAGGCCAACGCUAUGGUGAAGGCAUAGUCAAGGGAGCGGCGAAAGUCACACAAACCGG, which reverse-splicing fitness is on record?
Answer: Its reverse-splicing fitness is 0.00859.

Question: Which reverse-splicing fitness does the source give for GUGCCUUGCGCCGGGAAACCACGCAAGGGAUGGUGUCAAAUUCGGCGAAACCUAAGCGCCCGCCCGGGCGUAUGGCAACGCAGAGCCAAGCUUCGGCGCCUGCGCCGAUGCAGGUGUAGCGACUAGACGGCACCCACCUAAGGCCAACGGUAUGGUGAAGGCAUAGUCUAGGGAGAGGCGAAAGUCACACAAACCGG here?
Answer: The reverse-splicing fitness was 0.00758.

Question: For GUGCCUUGCGCCGGGAAACCACGCAAGGGAUGGUGUCAAAUUCGGCGAAACCUAAGCGCCCGCCCGGGCGUAUGGCAACGCAGAGCCAAGCUUCGGCGCCUGCGCCGAUGCAGGUGUAGCGACUAGACGGCACCCACCUAAGGCCAACGGUAUGGUGAAGGCAUAGUCUAGGGAGCGGCGAAAGUCACACAAACCGG, which reverse-splicing fitness is on record?
Answer: Its reverse-splicing fitness is 0.0112.

Question: Which reverse-splicing fitness does the source give for GUGCCUUGCGCCGGGAAACCACGCAAGGGAUGGUGUCAAAUUCGGCGAAACCUAAGCGCCCGCCCGGGCGUAUGGCAACGCAGAGCCAAGCUUCGGCGCCUGCGCCGAUGCAGGUGUAGCGACUAGACGGCACCCACCUAAGGCCAACGGUAUGGUGAAGGCAUAGUCUAGGGAGGGGCGAAAGUCACACAAACCGG here?
Answer: Its reverse-splicing fitness is 0.00564.
